What was measured:
Assay in all cases: cell-based or functional assay
[1] = target: S protein of Saudi isolate virus (MERS/HCoV/KSA/EMC/2012) (MERS-CoV, Saudi isolate …)
[2] = target: S protein of Jordan isolate virus (MERS-HCoV/Jordan/01) (MERS-CoV, Jordan isolate …)
[3] = target: S protein of Korean isolate virus (MERS-CoV/Korea/KNIH/002_05_2015) (MERS-CoV, Korean isolate …)

| Binder | Neutralizing activity against Saudi virus (MERS-CoV_KSA/EMC/2012) IC50 [1] [µg/mL] | Neutralizing activity against Jordan virus (MERS-HCoV/Jordan/01) IC50 [2] [µg/mL] | IC50, PRNT, Korean isolate virus, Second experiment [3] [µg/mL] | IC50, PRNT, Korean isolate virus, First experiment [3] [µg/mL] |
| --- | --- | --- | --- | --- |
| Antibody 5 (fully human antibody) (antibody, V domains shown) VH: EVQLVQSGAEVKKPGSSVKVSCKASGGTFSSYAISWVRQAPGQGLEWMGRIIPIFGIAKYAQKFQGRVTITADRSTSTAYMELSSLRSEDTAVYYCVTRSGDYSGSSGLAFDIWGQGTMVTVSS VL: not shown | 0.06 | 0.09 | 0.00025 |  |
| Antibody 1 (fully human antibody) (antibody, V domains shown) VH: QVQLVQSGAEVKKPGSSVKVSCKASGGTFSSYVISWVRQAPGQGLEWVGRIIPIFGTVKYAQKFQGRVTITADKSTSTAYMELSSLRSEDTAVYYCARDLPGDSRDGYNYDAFDIWGQGTLVTVSL VL: GELELTQPPSVSAAPGQKVTISCSGSSSNIGNNYVSWYQQLPGTAPKLLIYDNNKRPSGIPDRFSGSKSGTSATLGITGLQTGDEADYYCGTWDSSLNAGVFGGGTELTVLG | 0.44 | 0.11 |  | 0.0004 |
| Antibody 2 (fully human antibody) (antibody, V domains shown) VH: EVQLVQSGAEVKKPGSSVKVSCKASGGTFSSYAISWVRQAPGQGLEWMGRIIPIFGIAKYAQKFQGRVTITADKSTSTAYMELSSLRSEDTAVYYCARDLPGDSRDGYNYDAFDIWGQGTMVTVSS VL: GELVLTQPPSVSAAPGQKVTISCSGSSSNIGNNFVSWYQQLPGTAPKLLIYDNDKRPSGIPDRFSGSKSGTSATLGITGLQTGDEADYYCATWDRSLSVELFGGGTKVTVLG | 0.09 | 0.06 |  | 0.0009 |
| Antibody 3 (fully human antibody) (antibody, V domains shown) VH: QVQLQESGPGLVKPSETLSLTCTVSGGSINSRSYYWGWIRQPPGKGLEWIGSIYYSGSTYYNPSLKSRVTISVDTSKNQFSLKLRSVTAADTAVYYCARADREHVWGSYDGPGSPFDYWGQGTLVTVSS VL: not shown | 0.13 | 0.11 | 0.0032 |  |
| Antibody 4 (fully human antibody) (antibody, V domains shown) VH: QVQLQESGPGLVKPSETLSLTCTVSGGSINSRSYYWGWIRQPPGKGLEWIGSIYYSGSTYYNPSLKSRVTISVDTSKNQFSLKLRSVTAADTAVYYCARADREYVWGSYDGPGSPFDYWGQGTLVTVSS VL: GELVLTQPPSVSEAPRQRVTISCSGSSSNIGNNAVNWYLQVPGTAPKLLIYGDHQRPSGVPDRFSGSKSGTSASLSISGLQSEDEADYYCAAWDDSLNGVVFGGGTKLTVLG | 0.06 | 0.05 | 0.00165 |  |

Reference: US20220177552A1 (CELLTRION, published 2022)
